The target in test [1] is human dopamine D1A receptor (human) (UniProt P21728). As to the kind of experiment: cell-based or functional assay.
Test [2] addresses human adenosine A2a receptor (ADORA2A) (human) (UniProt P29274). The experiment in a line: cell-based or functional assay.

Sequence of human Golf protein (P38405 2-381 limits assumed): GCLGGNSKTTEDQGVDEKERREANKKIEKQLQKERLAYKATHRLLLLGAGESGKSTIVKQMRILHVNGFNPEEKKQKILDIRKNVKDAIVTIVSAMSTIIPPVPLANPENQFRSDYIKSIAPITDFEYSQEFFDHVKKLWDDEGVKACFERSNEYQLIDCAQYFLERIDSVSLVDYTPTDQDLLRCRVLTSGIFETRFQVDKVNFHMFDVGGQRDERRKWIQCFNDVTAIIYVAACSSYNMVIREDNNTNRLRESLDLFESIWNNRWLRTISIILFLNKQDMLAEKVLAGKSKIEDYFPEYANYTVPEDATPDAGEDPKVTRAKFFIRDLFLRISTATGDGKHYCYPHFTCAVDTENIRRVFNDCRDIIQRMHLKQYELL
Sequence of human adenosine A2a receptor (ADORA2A) (human) (P29274 whole entry): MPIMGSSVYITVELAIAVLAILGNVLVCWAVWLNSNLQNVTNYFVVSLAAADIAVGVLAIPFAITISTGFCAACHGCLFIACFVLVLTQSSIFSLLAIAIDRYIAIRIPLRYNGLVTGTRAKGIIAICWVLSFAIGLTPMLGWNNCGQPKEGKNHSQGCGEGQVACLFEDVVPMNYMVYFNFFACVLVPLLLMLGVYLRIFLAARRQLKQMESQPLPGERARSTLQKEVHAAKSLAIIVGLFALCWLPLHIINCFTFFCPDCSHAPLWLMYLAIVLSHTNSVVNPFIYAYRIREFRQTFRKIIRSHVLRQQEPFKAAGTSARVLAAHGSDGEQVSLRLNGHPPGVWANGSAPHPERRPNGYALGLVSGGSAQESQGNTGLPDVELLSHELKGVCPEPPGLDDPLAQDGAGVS
Sequence of human dopamine D1A receptor (human) (P21728 whole entry): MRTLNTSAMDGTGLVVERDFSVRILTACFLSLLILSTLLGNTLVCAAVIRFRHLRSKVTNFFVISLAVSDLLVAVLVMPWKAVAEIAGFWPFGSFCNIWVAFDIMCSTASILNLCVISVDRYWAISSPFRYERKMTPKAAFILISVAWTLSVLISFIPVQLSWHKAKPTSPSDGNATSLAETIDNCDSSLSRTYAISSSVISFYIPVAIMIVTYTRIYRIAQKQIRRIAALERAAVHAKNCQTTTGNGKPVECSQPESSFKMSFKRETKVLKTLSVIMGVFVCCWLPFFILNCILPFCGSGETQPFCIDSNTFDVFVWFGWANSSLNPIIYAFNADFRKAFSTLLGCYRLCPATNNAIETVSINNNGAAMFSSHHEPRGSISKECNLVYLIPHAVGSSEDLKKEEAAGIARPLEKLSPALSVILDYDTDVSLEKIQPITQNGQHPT

As to “human Golf protein (from UniProt P38405 2-381)”, the efficacy (Emax) of dopamine-induced [35S]-GTPγS binding, membranes of Sf9 cells co-expressing DRD1 and Golf in test [1] came to 231%. Moreover, in test [2], the induction of GTPγS agonist signal, A2a receptor co-expressed with Golf in Sf9 cells is 0.2.
